Assay [1] has as its target T1, biotin-angiocidin complex binding to TSP-1 (Homo sapiens, UniProt P55036, INS254GER).
T1 sequence (P55036 with tags, fused parts or gaps INS254GER): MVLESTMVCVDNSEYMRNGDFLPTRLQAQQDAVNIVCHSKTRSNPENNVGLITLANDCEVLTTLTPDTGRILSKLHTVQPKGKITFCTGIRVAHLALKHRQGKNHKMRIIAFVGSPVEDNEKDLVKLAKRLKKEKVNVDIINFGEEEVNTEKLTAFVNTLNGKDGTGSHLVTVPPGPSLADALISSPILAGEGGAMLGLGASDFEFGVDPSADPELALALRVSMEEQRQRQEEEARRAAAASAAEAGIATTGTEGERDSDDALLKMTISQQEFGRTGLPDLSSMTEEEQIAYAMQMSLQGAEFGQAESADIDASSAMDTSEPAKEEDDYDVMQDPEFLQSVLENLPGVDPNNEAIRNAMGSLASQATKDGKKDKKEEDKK
Put plainly: Biotin-avidin receptor binding assay: competition. Particulars: for competition of biotin-angiocidin binding to TSP-1: Example 23, FIGS. 29 and 30; for peptide competition of TSP-1 receptor binding: Example 25, peptide 1 mg/ml, FIG. 32. As for the experimental part:
In the following experiments, TSP-1 was covalently bound to a substrate, biotinylated angiocidin was added to the plate, and avidin-peroxidase was added to measure how much biotinylated angiocidin was attached to the TSP-1. The avidin-peroxidase was measured using a spectrophotometer at an absorbance of 450 nm.
Free angiocidin was added to the system to compete with the biotinylated angiocid in. […] Immobilized BSA was used as a negative control.
The TSP-1 peptide Cys-Ser-Val-Thr-Cys-Gly (SEQ ID NO: 1) was added to the system to compete with the TSP-1 on the plate for binding with the biotinylated angiocidin. The scrambled peptide Val-Cys-Thr-Gly-Ser-Cys (SEQ ID NO: 15) was used as a negative control and had no effect.
The avidin-biotin system discussed above was used to evaluate the competitive effect of various peptides on the binding of TSP-1 and angiocidin. […] The scrambled peptide Val-Cys-Thr-Gly-Ser-Cys-Gly (SEQ ID NO: 21) and the d-orientation peptide d-Cys-Ser-Val-Thr-Cys-Gly (SEQ ID NO: 22) were used as negative controls.

Assay [2] deals with T2, TSP-1 (Homo sapiens, UniProt P07996). Put plainly: Affinity Sensor System (resonant mirror biosensor): binding to TSP-1 coupled to cuvette. Particulars: peptide alone, TSP-1 immobilized in cuvette. The method, then:
(§1) Binding of undenatured (in the ligand blot protocol above, the receptor is denatured by SDS) recombinant receptor to TSP-1 was evaluated using the Affinity Sensor System, Cambridge, UK. This is an optical binding method that uses a cuvette to which either ligand or receptor is covalently coupled. A laser beam is used to detect bound proteins to the protein-derivatized cuvette surface. This method is highly sensitive and measures both the association and dissociation rate constants for ligand receptor interactions. The instrument assumes that one molecule of receptor binds one molecule of TSP-1 and calculates the dissociation constant (KD) according to the following relationships:
1) kass[R][TSP-1]=kdiss[R-TSP-1] at equilibrium, where kass is the second order rate constant for association and kdiss is the first order rate constant for dissociation
2) KD=[R][TSP-1]/[R-TSP-1]=kdiss/kass
3) [R-TSP-1]t=[R-TSP-1]eq[1-exp(-kont)], where the instrument response measure in arc seconds is proportional to receptor-TSP-1 complex R-TSP-1].
4) kon=kass[L]+kdiss where kon is the pseudo-first order rate constant for receptor TSP-1 interaction.
(§2) About 1 μg of TSP-1 was coupled to the cuvette through its amino groups to COOH groups on the cuvette surface. Unreacted groups on the cuvette surface were then blocked with ethanolamine and albumin. […] A dissociation constant of […] was calculated from a plot of the pseudo first order rate constant for association versus the concentration of the receptor, as shown in FIG. 7. Instrument response vs time readings shown in FIG. 8, where the instrument response is proportional to the concentration of receptor-TSP-1 complex, were used to plot the data points on FIG. 7.
(§3) […] The peptides used were Val-Cys-His-Ser-Lys-Thr-Arg (SEQ ID NO: 8), Val-Cys(Acm)-His-Ser-Lys-Thr-Arg (SEQ ID NO: 9), and Pro-His-Ser-Arg-Asn (SEQ ID NO: 10). The first two peptides are derived from the binding portion of the receptor, where it interacts with the Cys-Ser-Val-Thr-Cys-Gly (SEQ ID NO: 1) portion of the TSP-1 protein. The third peptide is a control.

Assay [3] has as its system Bovine aortic endothelial cells (BAEC). The experiment in a line: ALAMAR BLUE cell viability assay. In kind it is cell-based. Particulars: for cell viability, angiocidin and fragments: Example 27, FIG. 34. The method, then: Bovine aortic endothelial cells (BAEC), human umbilical vein endothelial cells (HUVEC), fibroblast cells, A549 human lung carcinoma cells (A549), MDA-MB231 human breast carcinoma cells (MB231), MCF7 human breast carcinoma cells (MCF7) were treated with 37 μg/ml of receptor, or buffer alone, for 24 hours. Viability of the cells was measured using the ALAMAR BLUE™ assay, which measures the capacity of cells to metabolize the ALAMAR BLUE™ dye. The ALAMAR BLUE™ assay (available from Biosource International, Camarillo, Calif.) quantitatively measures the proliferation of cell lines and can establish the relative cytotoxicity of chemical agents. The assay incorporates a fluorometric/colorimetric growth indicator based on detection of metabolic activity. The system incorporates an oxidation-reduction (redox) indicator that both fluoresces and changes color in response to chemical reduction of growth medium resulting from cell growth. This causes the redox indicator to change from its oxidized, non-fluorescent, blue form to its reduced, fluorescent, red form. Data can be collected using either fluorescence-based instrumentation (530-560 nm excitation wavelength and 590 nm emission wavelength) or absorbance-based instrumentation (570 nm and 600 nm).
BAEC and BSM cells were treated with increasing concentrations of angiocidin (0, 0.625, 1.25, 2.5, 5, 15, 26 and 37 μg/ml) for 24 hours. Cell viability was measured using the ALAMAR BLUE Tm assay. […] In contrast, BSM cells are unaffected.
The methods of Example 21 were followed, except BAEC cells were used. Additionally, TSP-1 was added at both 20 μg/ml and 5 μg/ml.
As discussed in Example 19 above, angiocidin was added to BAEC cells. Fragments of angiocidin were added as well. […] GST was used as a negative control. V36-R42, the active site of the antisecretory factor, had no effect, illustrating that angiocidin plays a different role from antisecretory factor.
Bovine aortic endothelial cells (BAEC) were cultured overnight in serum-free media containing either 37 μg/ml his-tagged angiocidin or his-tagged GST. Both angiocidin and GST were expressed in bacteria transformed with the pTrcHisA expression vector and purified on nickel affinity chromatography under non-denaturing conditions. Viability was measured by the ALAMAR BLUE™ assay.
This study examined the effect of anti-angiocidin antibody on angiocidin-mediated inhibition of BAEC viability. BAEC were cultured overnight in serum-free media containing either 5 μg/ml angiocidin, 5 μg/ml angiocidin plus 100 μg/ml control IgG, or 5 μg/ml angiocidin plus 100 μg/ml anti-angiocidin IgG. Viability was measured using the ALAMAR BLUE™ assay, described above.
The endothelial cells (BAEC) were incubated overnight 37 μg/ml of the angiocidin, fragments, and GST. Viability was measured using the ALAMAR BLUE™ assay.
(In general: Resazurin is reduced to fluorescent resorufin, in cell work by metabolically active cells.)

The next assay relates to B16-F10 Melanoma Cells. Put plainly: Cell adhesion to immobilized receptor peptides. The settings on record: Example 12, FIG. 14. The format is cell-based, mouse. The method, then: For the adhesion assay, in a 96 well plate, duplicate wells were covered with either TSP-1 (40 μg/ml), fibronectin (40 μg/ml), or and 1% bovine serum albumin (BSA). The wells were dried out overnight and then blocked with BSA. 100 μl of a suspension containing 2×10^5 cells were plated in the protein covered wells and incubated at 37^□ C. for 20 minutes to 1 hour. The non-adherent cells were removed and the wells were washed with a Hepes buffer. The adherent cells were fixed with 2.5% glutaraldehyde for 10 minutes and stained with 0.2% Giemsa. The stain was washed off and the cells were counted in a field of 1 mm square. Cells adhering to BSA were considered background while cells adhering to fibronectin were the positive control.
The method of Example 12 was followed except the receptor peptides Val-Cys-His-Ser-Lys-Thr-Arg (SEQ ID NO: 8) and Val-Cys(Acm)-His-Ser-Lys-Thr-Arg (SEQ ID NO: […]) were immobilized on the plates. TSP-1 and fibronectin were also immobilized on plates, as well as negative control peptides (Ala-Ser-Val-Thr-Ala-Arg (SEQ ID NO: 11) and Pro-His-Ser-Arg-Asn (SEQ ID NO: 10)) and bovine serum albumin. […] This provides support for the theory that another protein may be associated with TSP-1 and its receptor, or that the receptor is released and rebound to the membrane of the cell by another protein.

Another assay concerns the target T3, receptor-TSP-1 complex (Homo sapiens, UniProt P55036, INS254GER).
T3 construct: Full length cDNA cloned in the PBK-CMV vector was used as a template; 6xHis (pTrcHisA leader) (N); made in house; host or cells: bacteria (pTrcHisA vector)
T3 sequence (P55036 with tags, fused parts or gaps INS254GER): T1 sequence (P55036 with tags, fused parts or gaps INS254GER)
The experiment in a line: Affinity Sensor System: peptide competition of receptor binding to immobilized TSP-1. The settings on record: 10 fold molar excess of peptide. The method, then:
as §1, §2, §3

Assay [4] concerns the target T2, TSP-1. The experiment in a line: Optical binding of angiocidin fragments to TSP-1 derivatized cuvette. The settings on record: test proteins at 10 nm in PBS buffer. As for the experimental part:
This study examines the amino terminal (Met1-Lys132) and carboxy terminal (IIe248-Lys380) portions of angiocidin (SEQ ID NOS: 24 and 25, respectively). The binding of undenatured recombinant angiocidin fragments was compared to full length angiocidin. GST was used as a negative control. Binding was evaluated using an optical binding method that uses a cuvette to which TSP-1 is covalently coupled. A laser beam was used to detect whether the test protein (fragments, angiocidin, or GST) is bound to the TSP-1 derivatized cuvette surface. The cuvette was derivatized with 1 μg of TSP-1. The cuvette surfaces were blocked with a 1% BSA solution to prevent nonspecific binding. The test proteins were added at a concentration of […] in a PBS buffer.

No end group written: not given here. *: point of attachment. Acm = CC(=O)NC*

T2 sequence (P07996 19-1170): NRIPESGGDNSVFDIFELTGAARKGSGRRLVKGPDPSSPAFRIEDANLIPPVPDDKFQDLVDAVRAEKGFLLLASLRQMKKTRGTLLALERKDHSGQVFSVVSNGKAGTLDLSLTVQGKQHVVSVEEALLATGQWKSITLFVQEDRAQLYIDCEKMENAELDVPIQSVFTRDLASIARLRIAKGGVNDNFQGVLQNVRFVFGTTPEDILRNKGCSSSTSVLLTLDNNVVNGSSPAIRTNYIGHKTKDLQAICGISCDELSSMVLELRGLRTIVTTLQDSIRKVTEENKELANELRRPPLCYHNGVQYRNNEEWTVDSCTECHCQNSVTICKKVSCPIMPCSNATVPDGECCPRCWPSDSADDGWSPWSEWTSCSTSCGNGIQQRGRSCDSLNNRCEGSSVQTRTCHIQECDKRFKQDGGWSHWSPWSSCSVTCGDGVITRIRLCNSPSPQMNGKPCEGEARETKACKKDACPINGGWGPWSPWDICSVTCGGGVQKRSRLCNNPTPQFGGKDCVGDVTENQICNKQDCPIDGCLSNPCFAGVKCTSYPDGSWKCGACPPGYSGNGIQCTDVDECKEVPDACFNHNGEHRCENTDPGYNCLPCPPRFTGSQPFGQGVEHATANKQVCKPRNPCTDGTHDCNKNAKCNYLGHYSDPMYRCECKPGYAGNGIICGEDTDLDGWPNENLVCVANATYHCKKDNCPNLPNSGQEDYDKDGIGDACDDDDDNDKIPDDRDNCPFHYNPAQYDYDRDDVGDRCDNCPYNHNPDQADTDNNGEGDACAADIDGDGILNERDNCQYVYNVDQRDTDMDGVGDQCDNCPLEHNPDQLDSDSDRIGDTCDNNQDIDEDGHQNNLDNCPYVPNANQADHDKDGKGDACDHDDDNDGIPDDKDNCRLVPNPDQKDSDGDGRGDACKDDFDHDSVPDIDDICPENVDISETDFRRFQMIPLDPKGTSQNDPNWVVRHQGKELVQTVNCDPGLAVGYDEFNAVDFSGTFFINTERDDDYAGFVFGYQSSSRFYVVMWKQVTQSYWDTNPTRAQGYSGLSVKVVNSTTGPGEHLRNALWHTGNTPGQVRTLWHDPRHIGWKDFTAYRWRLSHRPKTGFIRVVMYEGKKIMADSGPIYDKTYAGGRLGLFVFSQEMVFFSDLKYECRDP

As to “CSVTCG (cysteine pairing not given here) [Cys-Ser-Val-Thr-Cys-Gly (SEQ ID NO: 1), TSP-1 peptide]”, in assay [1], the “competition of biotin-angiocidin binding to TSP-1” value was “effectively competed with TSP-1 for the biotin-angiocidin complex” and the “peptide competition of TSP-1 receptor binding” value (from here on “peptide competition”) was “effectively inhibited binding”.
Consider KVWVLPI, for which, in assay [1], the “peptide competition” value is on record as “inhibited the binding”.
For the substance “Pro-His-Ser-Arg-Asn (PHSRN) [Pro-His-Ser-Arg-Asn (SEQ ID NO: 10), negative control peptide, reference compound]”, the “direct binding to immobilized TSP-1” value with TSP-1 [2] is reported as “did not”.
With “V36-R42: the active site of the antisecretory factor (VCHSKTR; UniProt P55036 36-42, looked up, fragment) [reference compound]”, the “cell viability, angiocidin and fragments” value in assay [3] is “had no effect”.
For “VCTGSC (cysteine pairing not given here) [Val-Cys-Thr-Gly-Ser-Cys (SEQ ID NO: 15), scrambled peptide, negative control]”, in assay [1], the “competition of biotin-angiocidin binding to TSP-1” value is “had no effect”.
“Val-Cys(Acm)-His-Ser-Lys-Thr-Arg (VC(Acm)HSKTR)”: in the assay on B16-F10 Melanoma Cells, the “cell adhesion to immobilized peptide” value was “cause the cells to adhere to the plates, with similar affinity to the positive controls fibronectin and TSP-1”. Moreover, in the assay with TSP-1 [2], the “direct binding to immobilized TSP-1” value was “bind directly to the immobilized TSP-1”.
For “Val-Cys(Acm)-Thr-Gly-Ser-Cys(Acm) (VC(Acm)TGSC(Acm)) [scrambled peptide]”, the “extent of receptor binding, % of buffer control” value with receptor-TSP-1 complex is given as 88%.
Regarding “carboxy terminal fragment: carboxy terminal (IIe248-Lys380) portion of angiocidin (SEQ ID NO: 25)”, in assay [3] (37 μg/ml, overnight), the “anti-endothelial activity compared to angiocidin” value is recorded as “had activity levels similar to the negative control”. In addition, in assay [3], the “cell viability, angiocidin and fragments” value is “did not affect cell viability”. The “binding to TSP-1 derivatized cuvette” value with TSP-1 [4] was “show no binding activities”.
Turning to “d-Gly-Cys(Acm)-Thr-Val-Ser-Cys(Acm) (GCTVSC; not fully specified (residues 2, 3, 4, 5, 6); printed as d-Gly-Cys(Acm)-Thr-Val-Ser-Cys(Acm); cysteine pairing not given here; also: d- prefix stated for the peptide (mirror image, D-orientation)) [mirror image acetylated peptide]”, the “peptide competition” value in assay [1] is on record as “inhibited binding”.

(Values after patent US20030180295A1, “Angiocidin: a Cys-Ser-Val-Thr-Cys-Gly specific tumor cell adhesion receptor” (Philadelphia Health and Education Corporation, priority 1999, published 2003).)
